Laboratory results reported in patent US12514920B1, “Respiratory syncytial virus mRNA vaccine, and preparation method therefor and use thereof” (Hangzhou Tianlong Pharmaceutical Co., Ltd., priority 2024, dated 2026).

B1: YK-RSV-048 (protein)
chain: QNITEEFYQSTCSAVSKGYLGALRTGWYTSVITIELSNIKENKCNGTDAKVKLIKQELDKYKNAVTDLQLLMQSTPATGSGSFLGFLCGVGSAIASGVAVSKVLHLEGEVNKIKSALLSTNKAVVSLSNGVSVLTFKVLDLKNYIDKQLLPILNKQSCSIPNIETVIEFQQKNNRLLEITREFSVNAGVTTPVSTYMLTNSELLSLINDMPITNDQKKLMSNNVQIVRQQSYSIMSIIKEEVLAYVVQLPLYGVIDTPCWKLHTSPLCTTNTKEGSNICLTRTDRGWYCDNAGSVSFFPQAETCKVQSNRVFCDTMCSRTLPSEVNLCNVDIFNPKYDCKIMTSKTDVSSSVITSLGAIVSCYGKTKCTASNKNRGIIKTFSNGCDYVSNKGVDTVSVGNTLYYVNKQEGQSLYVKGEPIINFYDPLVFPSDEFDASISQVNEKINQSLAFIRKSDELLHNVNAGKSTTNIMITTIIIVIIVILLSLIAVGLLLY
B2: YK-RSV-050 (protein)
chain: QNITEEFYQSTCSAVSKGYLGALRTGWYTSVITIELSNIKENKCNGTDAKVKLIKQELDKYKNAVTDLQLLMQSTPATGSGSFLGFCLGVGSAIASGVAVSKVLHLEGEVNKIKSALLSTNKAVVSLSNGVSVLTFKVLDLKNYIDKQLLPILNKQSCSIPNIETVIEFQQKNNRLLEITREFSVNAGVTTPVSTYMLTNSELLSLINDMPITNDQKKLMSNNVQIVRQQSYSIMSIIKEEVLAYVVQLPLYGVIDTPCWKLHTSPLCTTNTKEGSNICLTRTDRGWYCDNAGSVSFFPQAETCKVQSNRVFCDTMCSRTLPSEVNLCNVDIFNPKYDCKIMTSKTDVSSSVITSLGAIVSCYGKTKCTASNKNRGIIKTFSNGCDYVSNKGVDTVSVGNTLYYVNKQEGQSLYVKGEPIINFYDPLVFPSDEFDASISQVNEKINQSLAFIRKSDELLHNVNAGKSTTNIMITTIIIVIIVILLSLIAVGLLLY

How the values were obtained:
[1] = biological target: RSV pre-F antibody (7H11); assay: Affinity of RSV F antigen mutants by BLI, epitope Quaternary; assay type: binding
Excerpt: The antibodies were each diluted to 10 g/mL with a 1×PBST solution.

[2] = biological target: RSV pre-F antibody (3C12); assay: Affinity of RSV F antigen mutants by BLI, epitope Φ; assay type: binding
Procedure: To investigate the affinity of the RSV F antigen mutants for antibodies specifically recognizing epitopes in a pre-fusion conformation, the affinity was determined by a bio-layer interferometry (BLI) method in this example.
• 293T cells (purchased from ATCC cell bank); • RSV pre-F antibody (3C12), epitope Φ (Novoprotein, Cat. No.: DA101); • RSV pre-F antibody (7H11), epitope Quaternary (Novoprotein, Cat. No.: DA109); • Experimental group: mRNA vaccines after screening in Example 6;
Protein sample preparation: the experimental procedure was the same as in Example 3.
The antibodies were each diluted to 10 µg/mL with a 1×PBST solution. […]
The detection was performed using a protein interaction analyzer, and the results were analyzed using Data Analysis 12.0 software to obtain the binding rate, dissociation rate, and affinity constants.
Bio-Layer interferometry (referred to as BLI) is a label-free real-time monitoring optical detection technique, mainly used for comprehensive quantitative analysis of the interaction between biomolecules and protein concentration determination. […]
In the present application, the affinity of target proteins for 2 antibodies was analyzed by a BLI method, wherein the RSV pre-F antibody (3C12) recognizes the epitope […], and the RSV pre-F antibody (7H11) recognizes the epitope Quaternary.

Row | Molecule | Kd [1] [pM] | Kd [2] [pM]
1 | B1 | 227 | 183
2 | B2 | 115 | 552
